Results on one substance are retold here after article doi:10.1101/2024.10.23.619877.

This experiment has as its target 20S proteasome (human housekeeping 20S core) (human) (UniProt P60900). The experiment in a line: AFM imaging with morphometric analysis of single particles.
UniProt P60900, sequence (P60900 whole entry, looked up): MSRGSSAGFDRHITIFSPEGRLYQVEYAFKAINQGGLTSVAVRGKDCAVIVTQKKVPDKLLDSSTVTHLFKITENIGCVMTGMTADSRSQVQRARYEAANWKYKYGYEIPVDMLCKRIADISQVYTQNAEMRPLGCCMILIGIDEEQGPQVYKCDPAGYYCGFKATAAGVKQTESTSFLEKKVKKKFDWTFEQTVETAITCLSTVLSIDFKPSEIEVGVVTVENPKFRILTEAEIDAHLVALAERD

19S regulatory particle (complex) registered a percent of particles that are 26S proteasomes (with 2 µM Aβ42 oligomers) of 52.9% and a percent of particles that are 26S proteasomes (without Aβ) of 75.8%.
